Experimental data: patent publication US6803203B1, “DNA-PK assay” (Brookhaven Science Associates, priority 1993, dated 2004)

What was measured:
DNA-PK [1] = biological target: T1, DNA-PK (Homo sapiens, UniProt P78527); assay: Phosphorylation of recombinant protein substrates by purified DNA-PK (SDS-PAGE, phosphorimage); type: biochemical
T1 construct: DNA-PK was purified from HeLa cells; endogenous in cells; host or cells: HeLa S3 cells; the endogenous enzyme was purified in house by chromatography
Method: The recombinant protein substrates, a total of six, (at approximately 0.1 mg/ml final concentration) were separately mixed with hsp90 in a phosphorylation reaction with purified DNA-PK (0.6 pg, 0.02 units/assay) without (−) or with (+) 5 μg/ml calf thymus DNA, in the presence of ^32P-ATP for 30 minutes at 30° C. as described by Lees-Miller, et al., Mol. Cell. Biol., 12:5041-5049 (1992). The phosphorylation reactions were stopped with SDS sample buffer and analyzed with SDS-PAGE. The gel was fixed, stained with Coomassie brilliant blue, dried and developed by autoradiographic procedures. The results of which can be seen in FIG. 9.

DNA-PK [2] = biological target: T1, DNA-PK; assay: Phosphorylation of mouse p53 by DNA-PK as a function of DNA concentration; type: biochemical; conditions: calf thymus DNA 100 μg/ml
Method: To determine whether DNA binding affected p53 phosphorylation by DNA-PK, the rate of phosphorylation of recombinant wild-type mouse p53 was measured as a function of DNA concentration. At low calf thymus DNA concentrations (0 to approximately 10 μg/ml), the initial rate of p53 phosphorylation increased sharply but then decreased as the DNA concentration was further increased. At DNA concentrations of 100 μg/ml, the rate of p53 phosphorylation fell to approximately 25% of the rate at 5 μg/ml. A similar dependence of phosphorylation rate on calf thymus DNA concentration was observed using SV40 TAg or the human Oct-1 POU domain as substrates.

| Molecule | increase in phosphate incorporation by addition of double stranded DNA (DNA-PK [1]; 5 μg/ml calf thymus DNA compared to no addition of DNA, 30 minutes at 30° C.) [fold] | phosphorylation by purified DNA-PK (in words) (DNA-PK [1]; DNA-dependent, compared with hsp90) | rate of p53 phosphorylation relative to the rate at 5 μg/ml DNA (DNA-PK [2]) |
| --- | --- | --- | --- |
| substrate 1: wild-type recombinant substrate: Ser Gln Glu DNA-PK site and wild-type Oct-1 POU domain; product of p349SUB1 (protein, POUSUB1 artificial DNA-PK substrate, wild-type recombinant substrate: Ser Gln Glu DNA-PK site and wild-type Oct-1 POU domain; product of p349SUB1) MPEESQETFEDLWKLLPGHHHHHHGMSGGMEEPSDLEELEQFAKTFKQRRIKLGFTQGDVGLAMGKLYGNDFSQTTISRFEALNLSFKNMCKLKPLLEKWLNDAENLSSDSSLSSPSALNSPGIEGLSRRRKKRTSIETNIRVALEKSFLENQKPTSEEITMIADQLNMEKEVIRVWFCNRRQKEKRINPQPELAPEDPED | 20 | equal to, if not better than, hsp90 | – |
| recombinant wild-type mouse p53: wild-type mouse p53 purified from Sf9 insect cells infected with recombinant virus NPVp53 (protein, UniProt P02340 1-390, looked up) Cellular tumor antigen p53: MTAMEESQSDISLELPLSQETFSGLWKLLPPEDILPSPHCMDDLLLPQDVEEFFEGPSEALRVSGAPAAQDPVTETPGPVAPAPATPWPLSSFVPSQKTYQGNYGFHLGFLQSGTAKSVMCTYSPPLNKLFCQLAKTCPVQLWVSATPPAGSRVRAMAIYKKSQHMTEVVRRCPHHERCSDGDGLAPPQHLIRVEGNLYPEYLEDRQTFRHSVVVPYEPPEAGSEYTTIHYKYMCNSSCMGGMNRRPILTIITLEDSSGNLLGRDSFEVRVCACPGRDRRTEEENFRKKEVLCPELPPGSAKRALPTCTSASPPQKKKPLDGEYFTLKIRGRKRFEMFRELNEALELKDAHATEESGDSRAHSSYLKTKKGQSTSRHKKTMVKKVGPDSD | – | – | approximately 25% |
